Drawing on patent US20250250362A1 (Chugai, published 2025), this text covers Kd for one molecule.

This experiment concerns the target T1, soluble human GPC3 (human, UniProt P51654 25-563).
T1 construct: range 25-563; whole entry named for human GPC3 (NP_001158089.1); also called glypican 3
Put plainly: SPR (Biacore). On the technique in general: SPR reads the build-up and loss of mass on a sensor chip optically.

T1 sequence (P51654 25-563 limits assumed): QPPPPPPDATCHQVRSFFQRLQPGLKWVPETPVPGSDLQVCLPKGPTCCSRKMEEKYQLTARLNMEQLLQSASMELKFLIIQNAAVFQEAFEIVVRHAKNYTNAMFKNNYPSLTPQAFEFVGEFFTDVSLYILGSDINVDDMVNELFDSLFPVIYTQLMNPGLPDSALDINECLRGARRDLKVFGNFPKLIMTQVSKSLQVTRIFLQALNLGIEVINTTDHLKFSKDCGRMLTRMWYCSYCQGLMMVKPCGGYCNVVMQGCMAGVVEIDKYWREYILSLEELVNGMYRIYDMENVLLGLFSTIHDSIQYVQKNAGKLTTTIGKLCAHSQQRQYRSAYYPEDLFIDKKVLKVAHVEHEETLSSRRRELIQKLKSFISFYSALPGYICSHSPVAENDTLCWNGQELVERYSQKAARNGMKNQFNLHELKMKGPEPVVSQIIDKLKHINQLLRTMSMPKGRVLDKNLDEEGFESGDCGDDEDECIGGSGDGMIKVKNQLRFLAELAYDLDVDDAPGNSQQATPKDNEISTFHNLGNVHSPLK

B1: H0610-G1dh/none-Hi-Kn010G3/L0129-k0 (antibody, V domains shown)
VH: QVQLVQSGAEVKKPGASVKVSCKASGYTFTDYEMHWIRQPPGQGLEWIGAIDGKTPDTAYSQKFKGRVTLTADKSTSTAYMELSSLTSEDTAVYYCTRFYSYTYWGQGTLVTVSS
VL: DIVMTQSPLSLPVTPGEPASISCRSSQSLVHSNRNTYLHWYQQKPGQAPRLLIYKVSNRRSGVPDRFSGSGSGTDFTLKISRVEAEDVGVYYCGQGTQVPYTFGQGTKLEIK
notes: one-arm
By Kd is commonly meant the equilibrium constant for the complex coming apart. A low value points to tighter binding. Take B1: the Kd was found to be 4.54 nM.
